Results: patent publication US20070065890A1, “Method for promoting formation of facultative heterochromatin” (priority 2005, published 2007)

What was measured:
recombinant human H1b = target: T1, recombinant human H1b (Homo sapiens, UniProt P10412); experiment: In vitro deacetylation of p300-acetylated recombinant H1b by SirT proteins; assay type: biochemical; settings: equal NAD+-exchange units measured using acetylated BSA as substrate
T1 construct: Human histone H1b and H1° were inserted into HA-Pet30c; HA (N); made in house; host or cells: E. coli BL21 (DE3)
Procedure: Detection of H1 acetylation was performed by using 4 μg of histone H1 (Upstate Biotechnology, Inc., Lake Placid, N.Y.) as an acetylated substrate for SirT1 in the NER. Deacetylation was determined by first performing a deacetylation assay using 20 and 40 μg of H1 and 6 nmol of SirT1. H1 was then isolated in the supernatant of chilled 5% perchloric acid, TCA precipitated (Albig, et al. (1998) FEBS Lett. 435:245-250), and resuspended in buffer C containing 100 mM KCl. Deacetylated H1 was then used in a subsequent NER. In vitro acetylation of H1 or recombinant H1b expressed in E. coli was carried out by incubating 10 μg H1 with 2 nmol baculovirus-generated p300 in the presence of 0.875 μCi [H^3]-Ac-CoA (Amersham, Piscataway, N.J.) in HAT buffer (75 mM Tris-HCl [pH 8.8], 135 mM NaCl). Deacetylation was carried out with the specified enzyme as above using 1 μg of the labeled Hi. […] Counts were then determined by liquid scintillation (PERKINELMER, Wellesley, Mass.) . […] In vivo H1 acetylation was analyzed by treating 293 cells for 18 hours in media containing 5 mM nicotinamide. H1 was purified as described (Albig, et al. (1998) supra) and analyzed in the NER. […]
SirT1 activity on histone H1 was directly tested in vitro. […] The same result was observed using recombinant human H1b; however, specificity was also scored in this assay using different SirT proteins.

[1] = test system: pTK-Luc reporter under the control of Gal4; experiment: Transient transfection Gal4 pTK-Luc reporter assay; assay type: cell-based; settings: 293F cells, luciferase normalized to β-galactosidase
Procedure: Transfections. All transfections were carried out in 293F cells using the indicated plasmids and POLYFECT (QIAGEN, Valencia, Calif.) following the protocol provided by the manufacturer. Nuclear and cytoplasmic fractions were isolated by a modified protocol (Dignam, et al. (1983) Methods Enzymol. 101:582-598). Fractions were analyzed by immunoprecipitation with the indicated antibodies followed by immunoblotting, or by luciferase activity (TD20e luminometer; Turner BioSystems, Sunnyvale, Calif.) . In the case of transient transfections, a β-gal reporter was used as a transfection control and the levels of luciferase activity were normalized to those of β-galactosidase, shown as a percentage. dsRNAi was ordered as a custom SMARTPOOL against SirT1 (Dharmacon, Lafayette, Colo.) and was transfected into U2OS cells using RNAFECT (QIAGEN, Valencia, Calif.). After incubation for 48 hours, cells were harvested and lysed with RIPA buffer (50 mM Tris-HCl, pH 7.4, 1% NP40, 0.25% Na-deoxycholate, 150 mM NaCl, 1 mM EDTA, 1 mM PMSF, 1 mM leupeptin, 1 mM aprotinin, and 1 mM pepstatin). Western blots were performed using the indicated antibodies. Total H4 was visualized by both western and COOMASSIE blue staining.
Plasmids. […]

T1 sequence (P10412 2-219): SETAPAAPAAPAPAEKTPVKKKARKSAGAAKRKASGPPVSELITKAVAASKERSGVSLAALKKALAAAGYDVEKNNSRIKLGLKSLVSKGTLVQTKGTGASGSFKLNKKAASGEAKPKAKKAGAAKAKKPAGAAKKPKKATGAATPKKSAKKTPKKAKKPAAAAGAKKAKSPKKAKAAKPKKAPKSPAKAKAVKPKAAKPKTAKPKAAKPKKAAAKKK

B1: SirT3: Recombinant SirT3 expressed from baculovirus in SF9 cells (protein)
chain: MAFWGWRAAAALRLWGRVVERVEAGGGVGPFQACGCRLVLGGRDDVSAGLRGSHGARGEPLDPARPLQRPPRPEVPRAFRRQPRAAAPSFFFSSIKGGRRSISFSVGASSVVGSGGSSDKGKLSLQDVAELIRARACQRVVVMVGAGISTPSGIPDFRSPGSGLYSNLQQYDLPYPEAIFELPFFFHNPKPFFTLAKELYPGNYKPNVTHYFLRLLHDKGLLLRLYTQNIDGLERVSGIPASKLVEAHGTFASATCTVCQRPFPGEDIRADVMADRVPRCPVCTGVVKPDIVFFGEPLPQRFLLHVVDFPMADLLLILGTSLEVEPFASLTEAVRSSVPRLLINRDLVGPLAWHPRSRDVAQLGDVVHGVESLVELLGWTEEMRDLVQRETGKLDGPDK
H1b deacetylation (recombinant human H1b): failed to significantly deacetylate H1b

B2: G4-SirT1: SirT1 fused to the Gal4 DNA binding domain (protein)
chain: MKLLSSIEQACDICRLKKLKCSKEKPKCAKCLKNNWECRYSPKTKRSPLTRAHLTEVESRLERLEQLFLLIFPREDLDMILKMDSLQDIKALLTGLFVQDNVNKDAVTDRLASVETDMPLTLRQHRISATSSSEESSNKGQRQLTVSMADEAALALQPGGSPSAAGADREAASSPAGEPLRKRPRRDGPGLERSPGEPGGAAPEREVPAAARGCPGAAAAALWREAEAEAAAAGGEQEAQATAAAGEGDNGPGLQGPSREPPLADNLYDEDDDDEGEEEEEAAAAAIGYRDNLLFGDEIITNGFHSCESDEEDRASHASSSDWTPRPRIGPYTFVQQHLMIGTDPRTILKDLLPETIPPPELDDMTLWQIVINILSEPPKRKKRKDINTIEDAVKLLQECKKIIVLTGAGVSVSCGIPDFRSRDGIYARLAVDFPDLPDPQAMFDIEYFRKDPRPFFKFAKEIYPGQFQPSLCHKFIALSDKEGKLLRNYTQNIDTLEQVAGIQRIIQCHGSFATASCLICKYKVDCEAVRGDIFNQVVPRCPRCPADEPLAIMKPEIVFFGENLPEQFHRAMKYDKDEVDLLIVIGSSLKVRPVALIPSSIPHEVPQILINREPLPHLHFDVELLGDCDVIINELCHRLGGEYAKLCCNPVKLSEITEKPPRTQKELAYLSELPPTPLHVSEDSSSPERTSPPDSSVIVTLLDQAAKSNDDLDVSESKGCMEEKPQEVQTSRNVESIAEQMENPDLKNVGSSTGEKNERTSVAGTVRKCWPNRVAKEQISRRLDGNQYLFLPPNRYIFHGAEVYSDSEDDVLSSSSCGSNSDSGTCQSPSLEEPMEDESEIEEFYNGLEDEPDVPERAGGAGFGTDGDDQEAINEAISVKQEVTDMNYPSNKS
repression of reporter expression [1]: approximately 100%

B3: SirT2: Recombinant SirT2 expressed in E. coli (protein)
chain: MAEPDPSHPLETQAGKVQEAQDSDSDSEGGAAGGEADMDFLRNLFSQTLSLGSQKERLLDELTLEGVARYMQSERCRRVICLVGAGISTSAGIPDFRSPSTGLYDNLEKYHLPYPEAIFEISYFKKHPEPFFALAKELYPGQFKPTICHYFMRLLKDKGLLLRCYTQNIDTLERIAGLEQEDLVEAHGTFYTSHCVSASCRHEYPLSWMKEKIFSEVTPKCEDCQSLVKPDIVFFGESLPARFFSCMQSDFLKVDLLLVMGTSLQVQPFASLISKAPLSTPRLLINKEKAGQSDPFLGMIMGLGGGMDFDSKKAYRDVAWLGECDQGCLALAELLGWKKELEDLVRREHASIDAQSGAGVPNPSTSASPKKSPPPAKDEARTTEREKPQ
H1b deacetylation (recombinant human H1b): failed to significantly deacetylate H1b
